Assay results taken from article PMC5737734 (Journal of molecular biology, 2011).

What was measured:
[1] = target: DnaK, wild type, with a C-terminal hexahistidine tag (E. coli, UniProt P0A6Y8 1-638); assay: SPR
DnaK V389A = DnaK V389A (E. coli, UniProt P0A6Y8 1-638, V389A); assay: SPR

B1: DnaJ with the biotin carboxyl carrier protein (BCCP) fused at the C-terminus (natural protein, E. coli, UniProt P08622 1-376, looked up)
chain: MAKQDYYEILGVSKTAEEREIRKAYKRLAMKYHPDRNQGDKEAEAKFKEIKEAYEVLTDSQKRAAYDQYGHAAFEQGGMGGGGFGGGADFSDIFGDVFGDIFGGGRGRQRAARGADLRYNMELTLEEAVRGVTKEIRIPTLEECDVCHGSGAKPGTQPQTCPTCHGSGQVQMRQGFFAVQQTCPHCQGRGTLIKDPCNKCHGHGRVERSKTLSVKIPAGVDTGDRIRLAGEGEAGEHGAPAGDLYVQVQVKQHPIFEREGNNLYCEVPINFAMAALGGEIEVPTLDGRVKLKVPGETQTGKLFRMRGKGVKSVRGGAQGDLLCRVVVETPVGLNERQKQLLQELQESFGGPTGEHNSPRSKSFFDGVKKFFDDLTR
- binding result [1]: binds
- binding result (DnaK V389A): binds
